Patent US20010049357A1, “Use of Hsp27 as an anti-inflammatory agent” (priority 1999, published 2001)

B1: Hsp 60: Human 60-kDa heat-shock protein, member of the large Hsp family (protein, UniProt P10809 27-573, looked up)
60 kDa heat shock protein, …: AKDVKFGADARALMLQGVDLLADAVAVTMGPKGRTVIIEQSWGSPKVTKDGVTVAKSIDLKDKYKNIGAKLVQDVANNTNEEAGDGTTTATVLARSIAKEGFEKISKGANPVEIRRGVMLAVDAVIAELKKQSKPVTTPEEIAQVATISANGDKEIGNIISDAMKKVGRKGVITVKDGKTLNDELEIIEGMKFDRGYISPYFINTSKGQKCEFQDAYVLLSEKKISSIQSIVPALEIANAHRKPLVIIAEDVDGEALSTLVLNRLKVGLQVVAVKAPGFGDNRKNQLKDMAIATGGAVFGEEGLTLNLEDVQPHDLGKVGEVIVTKDDAMLLKGKGDKAQIEKRIQEIIEQLDVTTSEYEKEKLNERLAKLSDGVAVLKVGGTSDVEVNEKKDRVTDALNATRAAVEEGIVLGGGCALLRCIPALDSLTPANEDQKIGIEIIKRTLKIPAMTIAKNAGVEGSLIVEKIMQSSSEVGYDAMAGDFVNMVEKGIIDPTKVVRTALLDAAGVASLLTTAEVVVTEIPKEEKDPGMGAMGGMGGGMGGGMF
B2: Hsp25: a murine analogue of Hsp27 (protein, UniProt P14602 1-209, looked up)
Heat shock protein beta-1: MTERRVPFSLLRSPSWEPFRDWYPAHSRLFDQAFGVPRLPDEWSQWFSAAGWPGYVRPLPAATAEGPAAVTLAAPAFSRALNRQLSSGVSEIRQTADRWRVSLDVNHFAPEELTVKTKEGVVEITGKHEERQDEHGYISRCFTRKYTLPPGVDPTLVSSSLSPEGTLTVEAPLPKAVTQSAEITIPVTFEARAQIGGPEAGKSEQSGAK

Tests used:
[1] = tested on: Mono Mac 6, a human monocyte cell line; conditions: reference 7; cited from earlier work
[2] = Adverse effect of Hsp 25 in normal rats; type: in vivo; conditions: 10 μg in normal rats (~250 gm body weight)
Description: Studies were performed to analyze the adverse effect of Hsp 25 (a murine analogue of Hsp27 ) in rats. […] To examine the effects in an animal model, the cecal ligation and puncture model (CLP) in rats can be used. (Chaudry, et al, 1993, In: Schlag, G. and Redl, H. (Eds), Pathophysiology of shock, Sepsis, and Organ Failure. Springer-Verlag, pp. 1048-1059.) CLP induces sepsis in rats. Hsp25 is administered to the CLP animals and the anti-inflammatory effect of Hsp25 in CLP rats is evaluated. The effectiveness of Hsp25 in simultaneously inducing IL-10 and IL-12 in human monocytes in the rat model, is reasonably predictive of the efficacy of Hsp27 as an anti-inflammatory agent in humans.

Row | Molecule | TNFα induced [1] | adverse effects [2]
1 | B1 | approximately 750 pg/ml | –
2 | B2 | – | did not induce any adverse effects
